From US20240293459A1 (published 2024)

Key:
Test in all cases: multimer staining
[1] = target: T1, SARS-CoV-2 NSP13 helicase; peptide NSP13-400 peptide on HLA-A*24:02 (human)
T1 peptide: VYIGDPAQL

[2] = target: T2, SARS-CoV-2 NSP13 helicase; peptide NSP13-242 peptide on HLA-A*02:01 (human)
T2 peptide: TLVPQEHYV

[3] = target: SARS-CoV-2 NSP13 helicase; peptide NSP13-448 peptide on HLA-A*01:01 (human)

B1: NSP13-400 TCR (TCR, V domains shown)
Valpha: RKEVEQDPGPFNVPEGATVAFNCTYSNSASQSFFWYRQDCRKEPKLLMSVYSSGNEDGRFTAQLNRASQYISLLIRDSKLSDSATYLCVVKDSWGKLQFGAGTQVVVTP
Vbeta: DARVTQTPRHKVTEMGQEVTMRCQPILGHNTVFWYRQTMMQGLELLAYFRNRAPLDDSGMPKDRFSAEMPDATLATLKIQPSEPRDSAVYFCASGPSGGWNTIYFGEGSWLTVV
Question: Does B1 bind [1]?
Answer: recognises

B2: NSP13-242 TCR (TCR, V domains shown)
Valpha: AQTVTQSQPEMSVQEAETVTLSCTYDTSENNYYLFWYKQPPSRQMILVIRQEAYKQQNATENRFSVNFQKAAKSFSLKISDSQLGDTAMYFCAFMNSNNARLMFGDGTQLVVKP
Vbeta: DAGITQSPRYKITETGRQVTLMCHQTWSHSYMFWYRQDLGHGLRLIYYSAAADITDKGEVPDGYVVSRSKTENFPLTLESATRSQTSVYFCASSPGSVPGGYTFGSGTRLTVV
Question: Does B2 bind [2]?
Answer: recognises

B3: NSP13-448 TCR (TCR, V domains shown)
Valpha: AQSVTQLGSHVSVSEGALVLLRCNYSSSVPPYLFWYVQYPNQGLQLLLKYTSAATLVKGINGFEAEFKKSETSFHLTKPSAHMSDAAEYFCAVSNSGGGADGLTFGKGTHLIIQP
Vbeta: DGGITQSPKYLFRKEGQNVTLSCEQNLNHDAMYWYRQDPGQGLRLIYYSQIVNDFQKGDIAEGYSVSREKKESFPLTVTSAQKNPTAFYLCASSIMAGGHGELFFGEGSRLTVL
Question: Does B3 bind [3]?
Answer: recognises
